Source: paper PMC6085349, “Silkworms suppress the release of green leaf volatiles by mulberry leaves with an enzyme from their spinnerets” (Scientific Reports, 2018)

Substrate: CC/C=C\C[C@@H](/C=C/C=C\CCCCCCCC(=O)O)OO
Assay: purified protein
Format: biochemical, Bombyx mori
Settings: typical assay 50 mM sodium borate pH 9.0, no cofactor, enzyme inactivates during turnover

B1: BmFHD (Bombyx mori fatty acid hydroperoxide dehydratase) (Bombyx mori) (protein)
chain: GGLRTTWGVGLGLGTDFFYEIPRSLEEVKSQGWVLTDKADGLPLPSLALYCSEDRILCGFFDETEYVVGLQVSLPVDEVTDIIFDMPTQGFIIWETEVDGELKKFYSIQQYFINEDTLKQSVEDRLSKWDSSKTLQEKSIWVTGFNGTLLEISTVADDIANGDDFTKQACVPWMGRHYYYKMSAKTECKADTLLPWFPIVESGELIATGFISFLKLSNTYKWFEKPSKAAVQFIVPDGPKCLYDLAEDSGLTTMHIYYVNQPWLVSCLWQ
notes: native, purified from middle silk glands (MSG-A) of fifth instar larvae; 289 aa precursor with predicted 19-residue N-terminal signal peptide; 32 kDa on SDS-PAGE; no tag
- Km: 1.13 µM
